The values that follow come from patent WO2012010582A1.

The assay concerns the target human CXCR5 (human) (UniProt P32302). The experiment in a line: cell-based or functional assay.
Chain of UniProt P32302 (P32302 whole entry): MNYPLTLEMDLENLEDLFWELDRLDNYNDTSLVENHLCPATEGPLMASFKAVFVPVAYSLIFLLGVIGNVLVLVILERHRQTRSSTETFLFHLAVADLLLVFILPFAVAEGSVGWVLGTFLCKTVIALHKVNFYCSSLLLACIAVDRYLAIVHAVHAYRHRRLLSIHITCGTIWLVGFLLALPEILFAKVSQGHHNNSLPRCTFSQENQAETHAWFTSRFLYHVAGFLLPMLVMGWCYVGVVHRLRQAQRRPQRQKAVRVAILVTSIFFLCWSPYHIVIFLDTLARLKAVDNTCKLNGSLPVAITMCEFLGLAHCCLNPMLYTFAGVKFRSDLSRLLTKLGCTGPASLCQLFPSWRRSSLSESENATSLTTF

With “human CXCL13 (from UniProt O43927 23-94) (ligand)”, the Ca-flux (FLU) at 0 nM rhCXCL13 (baseline) turned out to be 1680 FLU, the Ca-flux (FLU) at 1.95 nM rhCXCL13 was 2220 FLU, the Ca-flux (FLU) at 3.91 nM rhCXCL13 was 1840 FLU and the Ca-flux (FLU) at 7.81 nM rhCXCL13 came out at 1860 FLU. The Ca-flux (FLU) at 16 nM rhCXCL13 was found to be 6160 FLU, the Ca-flux (FLU) at 31 nM rhCXCL13 is 31100 FLU, the Ca-flux (FLU) at 63 nM rhCXCL13 turned out to be 51900 FLU and the Ca-flux (FLU) at 125 nM rhCXCL13 was 74700 FLU. Besides, the Ca-flux (FLU) at 250 nM rhCXCL13 was found to be 78400 FLU and the Ca-flux (FLU) at 500 nM rhCXCL13 was 68100 FLU.
